In the supplement of paper PMC9876800:

Tested on: peptide library, one residue held at a place counted from the S/T acceptor
Assay: relative phosphorylation of the sub-library (ratio to the mean residue at this position); higher = residue favoured
Conditions: human
Outline: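 Purified recombinant kinases were reacted in 384-well plates with biotinylated degenerate peptide sub-libraries, each having one residue fixed at one position around a central Ser/Thr. The reaction mix contained 50 μM peptide plus 50 μM ATP spiked with γ-32P-ATP and ran for 90 min under kinase-specific conditions. Relative sub-library phosphorylation, taken from densitometry of phosphorimaged streptavidin membrane spots, is a ratio to the mean residue at that position.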

Sequence of SIK2, construct: Full length (Q9H0K1 whole entry, looked up): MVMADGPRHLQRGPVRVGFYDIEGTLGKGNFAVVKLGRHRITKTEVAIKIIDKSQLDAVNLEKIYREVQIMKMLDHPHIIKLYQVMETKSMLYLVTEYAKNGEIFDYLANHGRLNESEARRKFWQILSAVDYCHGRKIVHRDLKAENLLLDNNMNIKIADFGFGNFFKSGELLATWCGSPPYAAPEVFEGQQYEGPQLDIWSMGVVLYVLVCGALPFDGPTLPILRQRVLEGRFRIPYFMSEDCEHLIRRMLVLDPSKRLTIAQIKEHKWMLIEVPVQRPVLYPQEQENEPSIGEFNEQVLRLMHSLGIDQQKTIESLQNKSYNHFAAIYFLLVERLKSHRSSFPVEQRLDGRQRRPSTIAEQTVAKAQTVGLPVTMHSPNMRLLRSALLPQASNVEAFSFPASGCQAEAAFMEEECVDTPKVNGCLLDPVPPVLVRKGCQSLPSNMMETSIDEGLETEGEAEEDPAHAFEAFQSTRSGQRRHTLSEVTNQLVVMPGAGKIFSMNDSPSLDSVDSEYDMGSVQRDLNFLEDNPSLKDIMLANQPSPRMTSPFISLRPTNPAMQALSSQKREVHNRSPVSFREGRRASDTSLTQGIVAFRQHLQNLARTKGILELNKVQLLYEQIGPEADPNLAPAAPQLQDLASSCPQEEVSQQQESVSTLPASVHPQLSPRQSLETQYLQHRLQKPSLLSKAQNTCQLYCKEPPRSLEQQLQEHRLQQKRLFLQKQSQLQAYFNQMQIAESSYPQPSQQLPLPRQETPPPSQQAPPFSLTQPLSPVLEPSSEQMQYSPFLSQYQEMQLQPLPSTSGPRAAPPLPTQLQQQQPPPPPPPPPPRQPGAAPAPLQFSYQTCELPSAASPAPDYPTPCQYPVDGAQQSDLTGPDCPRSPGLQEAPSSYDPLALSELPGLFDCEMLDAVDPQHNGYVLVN
Sequence of PLK3, construct: Full length (Q9H4B4 whole entry, looked up): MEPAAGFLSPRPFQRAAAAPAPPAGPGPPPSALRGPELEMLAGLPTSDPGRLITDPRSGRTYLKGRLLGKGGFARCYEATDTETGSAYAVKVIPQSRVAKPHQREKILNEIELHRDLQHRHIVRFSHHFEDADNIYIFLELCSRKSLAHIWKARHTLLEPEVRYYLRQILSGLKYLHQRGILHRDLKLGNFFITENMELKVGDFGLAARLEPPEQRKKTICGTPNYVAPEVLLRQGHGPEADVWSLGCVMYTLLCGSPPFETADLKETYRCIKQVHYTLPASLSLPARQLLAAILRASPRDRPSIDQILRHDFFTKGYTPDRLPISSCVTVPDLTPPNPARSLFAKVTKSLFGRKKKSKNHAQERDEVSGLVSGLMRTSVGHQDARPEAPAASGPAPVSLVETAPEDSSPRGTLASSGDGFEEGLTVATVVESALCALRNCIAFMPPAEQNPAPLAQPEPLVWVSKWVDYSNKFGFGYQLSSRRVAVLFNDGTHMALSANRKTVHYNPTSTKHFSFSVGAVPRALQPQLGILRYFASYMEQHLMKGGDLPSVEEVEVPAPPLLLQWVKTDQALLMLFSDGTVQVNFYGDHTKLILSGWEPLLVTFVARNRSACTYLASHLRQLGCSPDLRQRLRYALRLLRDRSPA

PLK3, construct: Full length (from UniProt Q9H4B4)
relative phosphorylation
Conditions | at +1 | at +2 | at +3 | at +4 | at -1 | at -2 | at -3 | at -4 | at -5
A fixed | 0.585 | 0.878 | 0.681 | 0.695 | 0.828 | 0.711 | 0.85 | 0.948 | 1.07
D fixed | 0.463 | 1.91 | 1.91 | 1.6 | 1.79 | 3.16 | 1.45 | 1.38 | 1.13
E fixed | 0.565 | 1.84 | 2.75 | 1.82 | 1.45 | 1.99 | 3.4 | 1.38 | 1.09
F fixed | 3.8 | 1.14 | 0.839 | 1.09 | 0.798 | 0.831 | 1.1 | 0.963 | 1.08
G fixed | 0.491 | 0.475 | 0.766 | 0.819 | 0.519 | 0.688 | 0.865 | 1.05 | 1.16
H fixed | 0.771 | 1.02 | 1.06 | 0.913 | 1.1 | 0.865 | 1.11 | 0.945 | 1.09
I fixed | 0.989 | 1.01 | 0.724 | 0.928 | 0.886 | 0.364 | 0.515 | 0.905 | 0.795
K fixed | 0.517 | 0.343 | 0.519 | 0.61 | 0.76 | 0.418 | 0.535 | 0.932 | 1.2
L fixed | 1.06 | 0.92 | 0.831 | 1.21 | 0.966 | 0.654 | 1.08 | 1.1 | 0.85
M fixed | 1.75 | 1.13 | 0.767 | 1.09 | 1.02 | 0.773 | 1.11 | 0.878 | 0.848
N fixed | 0.526 | 0.973 | 1.16 | 0.935 | 1.3 | 2.15 | 0.842 | 1.02 | 1.11
P fixed | 0.196 | 0.444 | 0.598 | 1.03 | 0.965 | 0.517 | 0.585 | 0.844 | 1.04
Q fixed | 0.93 | 0.714 | 0.876 | 0.881 | 0.929 | 1.06 | 0.778 | 0.831 | 0.757
R fixed | 0.87 | 0.56 | 0.642 | 0.706 | 1.06 | 0.592 | 0.597 | 0.906 | 1.13
V fixed | 0.814 | 0.806 | 0.706 | 0.656 | 0.928 | 0.437 | 0.476 | 0.834 | 0.769
W fixed | 1.04 | 1.51 | 1.1 | 1.12 | 0.566 | 0.654 | 0.934 | 1.19 | 0.964
Y fixed | 1.62 | 1.34 | 1.07 | 0.888 | 1.12 | 1.13 | 0.768 | 0.89 | 0.931
pThr fixed | 1.18 | 1.97 | 1.44 | 2.41 | 0.624 | 0.625 | 0.835 | 1.08 | 0.914
pTyr fixed | 1.06 | 6.48 | 2.1 | 2.03 | 3.06 | 0.735 | 1.01 | 1.17 | 1.11

SIK2, construct: Full length (from UniProt Q9H0K1)
relative phosphorylation
Conditions | at +1 | at +2 | at +3 | at +4 | at -1 | at -2 | at -3 | at -4 | at -5
A fixed | 0.683 | 0.923 | 0.762 | 0.745 | 0.883 | 1.45 | 0.789 | 0.944 | 0.972
D fixed | 0.42 | 0.461 | 1.59 | 0.353 | 0.463 | 0.232 | 0.255 | 0.57 | 0.48
E fixed | 0.487 | 0.486 | 0.54 | 0.309 | 0.388 | 0.208 | 0.327 | 0.599 | 0.463
F fixed | 1.13 | 0.924 | 1.51 | 0.96 | 0.685 | 1.5 | 0.969 | 0.98 | 1.2
G fixed | 0.622 | 0.518 | 0.556 | 0.631 | 2.45 | 0.96 | 0.658 | 0.991 | 0.89
H fixed | 1.06 | 1.1 | 1.23 | 0.79 | 1.03 | 1.37 | 1.14 | 1.02 | 0.858
I fixed | 1.05 | 0.988 | 0.821 | 2.46 | 0.591 | 0.561 | 0.627 | 0.762 | 1.09
K fixed | 1.18 | 1.19 | 0.856 | 1.11 | 1.65 | 1.26 | 2.14 | 1.56 | 1.5
L fixed | 1.17 | 1.15 | 0.988 | 2.94 | 0.929 | 0.52 | 0.752 | 0.828 | 1.76
M fixed | 1.68 | 0.94 | 0.916 | 1.4 | 1.03 | 0.664 | 0.765 | 1.02 | 1.17
N fixed | 1.03 | 1.03 | 2.08 | 0.635 | 1 | 0.583 | 0.526 | 0.828 | 0.757
P fixed | 0.336 | 0.68 | 0.33 | 0.578 | 0.923 | 0.394 | 0.788 | 0.729 | 0.767
Q fixed | 1.61 | 0.991 | 0.856 | 0.602 | 1.05 | 0.607 | 0.634 | 0.88 | 0.704
R fixed | 1.48 | 1.7 | 1.03 | 0.83 | 1.77 | 1.4 | 3.76 | 2.09 | 1.41
V fixed | 1 | 0.965 | 0.638 | 1.16 | 0.641 | 0.771 | 0.637 | 0.857 | 0.959
W fixed | 0.951 | 1.74 | 1.19 | 0.809 | 0.605 | 2.67 | 1.37 | 1.29 | 1.04
Y fixed | 1.11 | 1.21 | 1.12 | 0.688 | 0.918 | 1.85 | 0.864 | 1.06 | 0.967
pThr fixed | 0.905 | 0.696 | 0.382 | 0.389 | 0.467 | 0.567 | 0.613 | 0.787 | 0.791
pTyr fixed | 0.499 | 0.38 | 0.573 | 0.35 | 0.746 | 0.54 | 0.614 | 0.526 | 0.71
